According to patent US8993229:

Columns and labels:
[1] = molecular target: porcine gastric mucin coupled to magnetic beads (mucin from porcine stomach, type III, Sigma) (porcine); test: PGM-MB pull-down, qRT-PCR; untreated control in the initial pressure trials
[2] = molecular target: porcine gastric mucin coupled to magnetic beads (mucin from porcine stomach, type III, Sigma) (porcine); test: PGM-MB pull-down, qRT-PCR; after 600 MPa, 5 minutes, 5 C
[3] = molecular target: porcine gastric mucin coupled to magnetic beads (mucin from porcine stomach, type III, Sigma) (porcine); test: PGM-MB pull-down, qRT-PCR of the bound fraction; after 500 and 600 MPa, 5 minutes, 5 C
[4] = molecular target: porcine gastric mucin coupled to magnetic beads (mucin from porcine stomach, type III, Sigma) (porcine); test: PGM-MB pull-down, qRT-PCR; after 1 J/cm^2 UV
[5] = molecular target: porcine gastric mucin coupled to magnetic beads (mucin from porcine stomach, type III, Sigma) (porcine); test: PGM-MB pull-down, qRT-PCR; after 0.5 J/cm^2 UV
[6] = molecular target: porcine gastric mucin coupled to magnetic beads (mucin from porcine stomach, type III, Sigma) (porcine); test: PGM-MB pull-down, qRT-PCR; after 0.25 J/cm^2 UV
[7] = molecular target: porcine gastric mucin coupled to magnetic beads (mucin from porcine stomach, type III, Sigma) (porcine); test: PGM-MB pull-down, qRT-PCR; 0 J/cm^2 in the UV series
[8] = molecular target: porcine gastric mucin coupled to magnetic beads (mucin from porcine stomach, type III, Sigma) (porcine); test: PGM-MB pull-down, qRT-PCR; untreated virus in the 300-600 MPa series
[9] = molecular target: porcine gastric mucin coupled to magnetic beads (mucin from porcine stomach, type III, Sigma) (porcine); test: PGM-MB pull-down, qRT-PCR; untreated virus (0 seconds) in the thermal series
[10] = molecular target: porcine gastric mucin coupled to magnetic beads (mucin from porcine stomach, type III, Sigma) (porcine); test: PGM-MB pull-down, qRT-PCR; 0 J/cm^2; printed as 'bound' but the context (84% bound) shows it is the unbound fraction
[11] = molecular target: porcine gastric mucin coupled to magnetic beads (mucin from porcine stomach, type III, Sigma) (porcine); test: PGM-MB pull-down, qRT-PCR; after about 60 seconds in the heat block, about 64 C

## GII.4 norovirus (untreated virions, stock provided by the CDC)
[1]
  percent bound: 69%

## GI.1 norovirus after high pressure treatment (300-600 MPa, 5 minutes, 5 C) (from UniProt Q83884 1-530)
[2]
  percent bound: 0.3%
[3]
  log10 reduction of qRT-PCR detectable norovirus RNA after binding to PGM-MBs: > 4.7

## GI.1 norovirus after UV treatment (254 nm, up to 2 J/cm^2) (from UniProt Q83884 1-530)
[4]
  percent bound: 4%
[5]
  percent bound: 33%
  percent unbound: 67%
[6]
  percent unbound: 40%

## GI.1 Norwalk strain norovirus (untreated virions from stool stock, patient No. 505A-05) (from UniProt Q83884 1-530)
[7]
  percent bound: 84%
[8]
  percent bound: 82%
[1]
  percent bound: 71%
[9]
  percent bound: 68%
  percent unbound: 32%
[10]
  percent unbound: 16%

## GII.4 norovirus after high pressure treatment (600 MPa, 5 minutes, 5 C)
[2]
  percent bound: 4%

## GI.1 norovirus after thermal treatment (80 C heat block, 0-600 seconds) (from UniProt Q83884 1-530)
[11]
  percent bound: 6%
